# Source: the nanobody polyreactivity screen of Harvey et al. (2022)
# Experiment: yeast display, Sf9 membrane polyspecificity reagent, FACS + sequencing; frameworks hold sequencing errors
# How it was run: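 Nanobodies from a synthetic yeast display library (Saccharomyces cerevisiae BJ5465), induced 36–48 hours with galactose, were stained 1 hour at 4 °C with 10% biotinylated, detergent-solubilized Sf9 membrane reagent, enriched on streptavidin microbeads, then FACS-sorted. Anti-HA (expression) and streptavidin (reagent binding) fluorescence set low and high (top ~1%) gates. Polyreactivity labels come from the gate of origin. Genes were colony-PCR amplified, MiSeq 2 × 250 sequenced and filtered by CDR length.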
row,Sequence,polyreactivity (PSR sort gate)
1,QVQLVESGGGVVQAGGSLRLSCAASGSIFLYIYAKGWYRHAPGKERELVATINWDGGSTYYADSVKGRFTISRDNAKNTVYLQMNSLKPEDTAVYYCAADWYYSYYFYRFDYWGQGTQVTVSS,low polyreactivity
2,QVQLVESGGGVVQAGGSLRLSCAASGSIFYVYSMGWYRQAPGKERELVAAISRSGTNTYYADSVKGRFTISRDNAKNTVYLQMNSLKPEDTAVYYCNADAAYLVTQPYDDNYDYWGQGTQVTVSS,low polyreactivity
3,QVQLVESGGGVVQAGGSLRLSCAASGSIVYSYAMGWYRQAPGKERELVARIRWGGGRTYYADSVKGHFAISRDNAKNTVYLQMNSLKPEDTAVYYCAASYVYPASFHYYYWGQGTQVTVSS,high polyreactivity
4,QVQLVESGGGVVQAGGSLRLSCAASGSTFDVYAMGWYRPAPGKERELVAAITSGGTTNYADSVKGRFTISRDNAQNTVYLQLNSLKPEDTAVYYCAADSPWGGGYFVLYNYWGQGTQVTVSS,low polyreactivity
5,QVQLVESGGGVVQAGGSLRLSCAASGSTFRTNAMGWYRQAPGKERELVAAITSTGGSTYYADSVKGRFTISRDNAKNTVYLQMNSLKPEDTAVYYCAAYYVPGYYYWGQGTQVTVSS,high polyreactivity
6,QVQLVESGGGVVQAGGSLRLSCAASGSTFRYNARGWYRQAPGKEREFVAAITTSGVRTYYADSVKGRFTISRDNAKNTVYLQMNSLKPEDTAVYYCARRTPGTRWNYDYWGQGTQVTVSS,high polyreactivity
7,QVQLVESGGGVVQAGGSLRLSCAASGSTFYPYAMGWYRPAPVKERELVASISSRGGTTYYADSEKGRFTISRDNAKNTVYLQRNSLKPEDTAVYYCAATYKHLNPLGVFSGGYYYWGQGTQVTVSS,high polyreactivity
8,QVQLVESGGGVVQAGGSLRLSCAASGSTLSYYAMGLYIQAPGTERELVAAITSGVSTNYADSVKGRFTISRDNAKNTVYFQMNSLKPEDTAVYYCAKAYGGYHDDYDYWGQVTQVTVSS,low polyreactivity
9,QVQLVESGGGVVQAGGSLRLSCAASGYIYLVYAMGWYRQATGKETELVAAISSGGSTYYADSVKGRFTISRDNAKNTVYLQMNSLKPEDTSVYYCATAGLALYAFRDDYWGQGTQVTVSS,low polyreactivity
10,QVQLVESGGGVVQAGGSLRLSCAATGSTFWWYAMGWYRQAPGKERELVADITTGGSTNYADSVKGRFTISRDNAKNTVYLQMNSLKPEDTAVYYCNADGVTPYTWRLRYFKYHFDYWGQGTQVTVSW,low polyreactivity
11,QVQLVESGGGVVQAGGSLRLSCDASGSTFDTYAMGWYRQAPGKERELVAGNTRRGGRTYYADSVKGRFTISRDNAKNTVYVQMNSLKPEDSAVYYCNALPQRPVGKRDHWGQGTQVTVSS,high polyreactivity
12,QVQLVESGGGVVQAGGSLRLSGAASGTLDGNAMGWYRPAPGKERELVAAISRCGGRTYYADSVKGRFTISRDNAKNTVYLQMNSQKPEDTAVYYCNTVSKPGYAYNYWGQGTQVTVSS,high polyreactivity
13,QVQLVESGGGVVQAGGSLRLSSAASGISFAYYAMGWYRQAPGKERELVASITNTGSTYYADSVKGRFTISRDNAKNSVYLEMTSLKPEDTAVYYCNAVLSSNTKWRYPGDDWGQGTQVTVSS,low polyreactivity
14,QVQLVESGGGVVQAGGSLRLSSAASGYIFRAYAMGWYRQAPGKERELVAAISSRGGSTYFADSVKGRFTISRDNAKNTVYLQMNSLKPEDTAVYYCAAAYRQPYIGYGYWGQGTQVTVSS,high polyreactivity
15,QVQLVESGGGVVQAGGSLRLSWAASGFIFAVYAMGWYRQSTGKERELVAAITFDGDTTYYADSVKGRFTISRDNANNTVYLQMKILKPDTAVYYCAAEYIKYLWYLHVDYWGQGTQVTVSS,low polyreactivity
16,QVQLVESGGGVVQAGGSLRLTCAASGFTFARYATGWYRQAPGKERELVAAITYSGGRTYYADSVKGRFTISRDNAKNTVYLHMNSLKPEDTAVYYCAARQYGPRYTYYYWGQGTQVTVSS,high polyreactivity
17,QVQLVESGGGVVQAGGSLRLTCAASGRTFYVYAMGWYRQAPGKEREFVAAITSSGGSTYYADSVKGRFTISRDNAKNTVYLQMNSLNPEDTAVYYSDAEWSTPSYVGFADGFEYWGQGTQVTVSS,low polyreactivity
18,QVQLVESGGGVVQAGGSLSLSCAASGFNFNYYAMGWYRPAPGKERELVAISRGGTTNYADSVKGRFTISRDNAKNTVYLQMNSLKPEDTAVYYCAVTGTYYGYSWQSRYKYDYWGQGTQVTVSS,high polyreactivity
19,QVQLVESGGGVVQAGGTLRLSCAASGRIFSYYDMGWYRQAPGKERELVAAITWGGGATYYADSVKGRFTISRDNAKNTVYLLMNSLKPEDTAVYYCAADWSPSIWEYDYWGQGTQVTVSS,low polyreactivity
20,QVQLVESGGGYVQAGGSLRLSCAASGRTFLGYDMGWYRQAPGKERELVAAISSSGGSTYYADSVKGRFTISRDNAKNTVYLEMNSLKPEDTAVYYCAKRNRATGASGHRFGYWGQGTHVTVSS,high polyreactivity
21,QVQLVESGGLLVQAGGSLRLSCAASGSNSYRYDIVWYRQPPGKERELVATIRSGGSTNYADSVKGRFTISRDNAKNTVYLQMNSLKPEDTAVYYCASRLYARKKLHFSADSDYWGQGTQVSVSS,low polyreactivity
22,QVQLVESGGPLVQAGGSLRLICAASGRTFYYNAKGWYRQAPGKDRELVAAITWSGGGTYYADSVKGRFTISRDNAKNTDYLQMNSLKPEDTAFYYCAAEDWSIEYEYWGQGTQVTVSS,high polyreactivity

row,Sequence,polyreactivity (PSR sort gate)
1,QVQLVESGGRIVQAGGSLRLRCAASGSTFHRYAMGRYRQAPGKERELVAAISRSGGSTYYADSVKGRFTISRDTAKNTVYLLMNSLKPVDTAVYYCAADRTGHGFGYWGQGTQVTVSS,high polyreactivity
2,QVQLVESGGRKVQAGGSLRLSCAASGYTSSRYAMGRYRPAPGKERELVAAISGTGGSTNYADSVKGRFTISRDNAKNNVYLQKNSLKPEDTAVYYCAKRSRTYGTSPYYYWGQGTQVSVSS,high polyreactivity
3,QVQLVESGGRLFQAGGSLRLSCAASGFTTSAYTKGWYRQAPGKERELVAVISARGGSTSYADSVKGRFTISRDNAKNPVYLQMKCRKPEDTAVFYCAARGRAHWHYDYWGHGTQVTVSS,high polyreactivity
4,QVQLVESGGRLFQAGGSLRLSCPASGFTFVYNAMGWYRQAPGKERELVATISSGGGRTYYADSVKGRFTISGDNAKNTVSLQKYSQKPEDTAVYYCATVRRTSSGERHEFWGQGTQVTVSS,low polyreactivity
5,QVQLVESGGRLHQAGGSLRLICAASGSIIATYAMGWYRPAHGKERELVAAITSSDGSTNYADSVKGRFTISRDNAKNTVYLQMNCLTPEDTAVYYCAKDVWRHYLNLYDYWGQGTQVTVSS,low polyreactivity
6,QVQLVESGGRLVHAGGSLRLSCAASGSTFERNLMGWYSEAPGKERELVAAISRVSSTNYADSVKGRFTISRDNAKNTVYLQMNSVKPEDTAVYSCAADRAGSIMNYWGQGTQVTVSS,low polyreactivity
7,QVQLVESGGRLVQAGASLRLSCAASGFTFGGYAMGWYRQPHGKQRELVAAIDSSGGRTYNADSVKGRFTISRDNAKNTVYLQMNSLKPEDTAVYYCNAVYGSDGYDYWGQGTQVTVSS,high polyreactivity
8,QVQLVESGGRLVQAGGRLRLSSAATGLIFYANAMGWYRQAPGKQREFVADISNSGGSTYYADSVKGRFTISRDNAKNTVYLQMNSLKPEDTAVYYCNRVAYKRGYGVRYGGDYDYSGQGTQVTVSS,low polyreactivity
9,QVQLVESGGRLVQAGGSHRIRCAASGFIFWYYAMGWYRPAPGKERELVAGITTGGSTNYADSVKGRFTISRDNAKNTVYLEMNSLKPEDTAVYYCNADPTYQVGYDYWGQGTQVTVSS,low polyreactivity
10,QVQLVESGGRLVQAGGSLLLSCAASGRIFDKYAMGWYRQAPGKERELVAAITYIDSGTYYADSVKGRFTISRDNAKNTVYLQMNSLKPEDTAVYYCAARYPSDYDYWGQDTQVTVSS,low polyreactivity
11,QVQLVESGGRLVQAGGSLRFTCAASGSIFYSYAMGWYRQAPGKERELLAAINYSGSSTYYADSVKGRFTISRDNAKNTVYLQMNSLKPEDTAVYYCAAVIHSQYVDYYYWGQGTQVTVSS,high polyreactivity
12,QVQLVESGGRLVQAGGSLRIICAASGIIFFHYAMGWYRQAPGKERELVAAITCSGGSTYYADSVKGRFTISRDKAKNTVYLHMNSLKPEDTAVYYGNAVLHRRLYDYWGQGTQVTVSS,high polyreactivity
13,QVQLVESGGRLVQAGGSLRLICAASGFIFWYYAMGWYRQAPGKERELVADISSGGSTNYADSVKGRFTISRDNAKNTVYLQMNSLKPEDTAVYYCAADTFRRDDYWGQGTQVTVSS,low polyreactivity
14,QVQLVESGGRLVQAGGSLRLICAASGLIFRAYAMGWYIQAPGKERELVAAISRNGGSTYYADSVKGRFTISRDNAKNTVYLQMNILKPEDTAGYYCNKVSRSSVYQDYYYWGQGTQVTVSS,high polyreactivity
15,QVQLVESGGRLVQAGGSLRLRCAASGSIFGGYTMGRSRQAPGKERELVAAISRRGGNTYYADSVKGRFTISRDNAKNTVYLQMNSLKPEDTAVYYGAVRWPSARIPVKLDYWGQGTQVSVSS,high polyreactivity
16,QVQLVESGGRLVQAGGSLRLSCAACGGIIWYNTMGWYRQAPGKERELVAAISDSGGRTSYADSVKGRFTISRDNAKNTVYLQMNSLKPEDTAVYYCNVDYVVSRGFIYRVDYWGQGTQVTVSS,low polyreactivity
17,QVQLVESGGRLVQAGGSLRLSCAASAITFGHNAMGWYRQAPGKGRELVATISTRGGSTYADSVKGRFTISRDNAKNTVYLQMNSLKPEDTAVYYCAAPAGGYVPYFYEFDYWGQGTQVTVSS,low polyreactivity
18,QVQLVESGGRLVQAGGSLRLSCAASGFIFAYYSMGWYRKAPGKERELVAAISQSGTSTYYADSLKGRFTISRAKAKNTVYLQMNSLKPVDTAVYYCNAELRDLEYDYWGQGTQVTVSS,low polyreactivity
19,QVQLVESGGRLVQAGGSLRLSCAASGFIFEDYAMGWYRQAPGKERELVAAITWRGGSTYYADSVKGRFTISRDHAKTTVYLQMNSLKPEDTAVYYCAAEDYWGWRDYWGQGTQVTVSS,high polyreactivity
20,QVQLVESGGRLVQAGGSLRLSCAASGFIFKLYGMGWYRQAPGKESEMVAAINTSGGRTYYADSVKGRFTISLDNAKNTVYLQMNSLKPEDTAVYYCNTYYSFYGGGYDHWVQGTQVTVSS,high polyreactivity
21,QVQLVESGGRLVQAGGSLRLSCAASGFTFGHYAMGWSRPARGKEWELVAAIRWSGGSTYYADSVKGRFTISRDNAKNTVYLQMNSLKPEDTAVYYCAARRFDGFEYDYWGDGTQVTVSS,low polyreactivity
